This note sets out measurements from patent US11219695.

The subject of data set [1] is ZFN SBS 47171 (left/right albumin ZFN, FokI fusion) (synthetic construct). Put plainly: cell_activity. Particulars: ZFN pair with P2; HepG2/C3A, 300K/600K vg/cell, donor A; 39.81% with donor B; half-site not stated.
Data set [2] concerns ZFN SBS 47898 (also printed as SB 47931 in the transduction method) (synthetic construct). Put plainly: cell_activity. Particulars: ZFN pair with P1; HepG2/C3A, 300K/600K vg/cell, donor A; partner named 47898 or 47931 in text; half-site not stated.

Consider “GCACTAAGGAAAGTGCAAAGTAACTTAGAGTGACTGAAACTTCACAGAATAGGGTTGAAGATTGAATTCATAACTATCCCAAAGACCTATCCATTGCACTATGCTTTATTTAAAAACCACAAAACCTGTGCTGTTGATCTCATAAATAGAACTTGTATTTATATTTATTTTCATTTTAGTCTGTCTTCTTGGTTGCTGTTGATAGACACTAAAAGAGTATTA (double strand)”, for which the activity in data set [1] and in data set [2] was 43.5 % indels each time.
